The DeepSol protein solubility set

Assay: soluble on expression in E. coli; label from the status in PepcDB or PDB records

Sequence | soluble on expression in E. coli
MSLREGYLPAVITVSGKDRPGVTAAFFRVLSANQVQVLDVEQSMFRGFLNLAAFVGIAPERVETVTTGLTDTLKVHGQSVVVELQETVQSSRPRSSHVVVVLGDPVDALDISRIGQTLADYDANIDTIRGISDYPVTGLELKVTVPDVSPGGGEAMRKALAALTSELNVDIAIERSGLLRRSKRLVCFDCDSTLITGEVIEMLAAHAGKEAEVAAVTERAMRGELDFEESLRERVKALAGLDASVIDEVAAAIELTPGARTTIRTLNRMGYQTAVVSGGFIQVLEGLAEELELDYVRANTLEIVDGKLTGNVTGKIVDRAAKAEFLREFAADSGLKMYQTVAVGDGANDIDMLSAAGLGVAFNAKPALKEIADTSVNHPFLDEVLHIMGISRDEGHHHHHH | soluble
MGSDKIHHHHHHMFRLQFRLFPPLRTAMHILLTALLKCLSLLPLSCLHTLGNRLGHLAFYLLKEDRARIVANMRQAGMNPDPKTVKAVFAETAKGGLELAPAFFRKPEDIETMFKAVHGWEHVQQALDKHEGLLFITPHIGSYDLGGRYISQQLPFPLTAMYKPPKIKAIDKIMQAGRVRGKGKTAPTSIQGVKQIIKALRSGEATIVLPDHVPSPQEGGEGVWVDFFGKPAYTMTLAAKLAHVKGVKTLFFCCERLPGGQGFDLHIRPVQGELNGDKAHDAAVFNRNAEYWIRRFPTQYLFMYNRYKMP | not soluble
MDRVLSRADKERLLELLKLPRQLWGDFGRMQQAYKQQSLLLHPDKGGSHALMQELNSLWGTFKTEVYNLRMNLGGTGFQ | soluble
MGSDKIHHHHHHMINLEKYRIDLNEKKSTKYIQIFNHIKELIINKELVEHEKLPPIRKLSNFLQVNNTTIVKVYELLENEGYVYKIIGSGTFVSSLNSYKSGIDNRKNKIIVQREDLIHFDNGNPSNDMFPIDSFKNAVNMALSKDGSSIFEYDEGLGSEELREKMVEYLSDGNIKTTKENIQIISGAQQGIDIVCKGLISYSDVVFMEEPSYNGAIEVFKSRGAKIISIPMLDDGIDIGILKLKLEKIKPRLIYIMPNFQNPTGISYSTYKKKKLIELAEEHDFYIIEDDFISDFVFESKDNRTIRSYDDKNRVVYIKSFSKILMPGLRIGIVEMPNELLKKVLWAKYSSDISTPGLIQKSMYYYMNNFDWKNYLSHIEKIYTDKYKLAKNLINDKLSGKLKVRKSCGGINFFLELPRGYTSQAFTNFMLNKGVSMLPGTYFFDNLVDDRFFRINIARPSMEELEKGISIISDNIDEFFCEYKNKLDIKSNKLFY | not soluble
MSLVRQLIGRTLSGTVTMCAGPFRSVLNMLHRPQWETAMIAPLPAVDMRVICAGHVNWDVTLHVDHLPKPDGEGRITDRSQSSGGSASNAAVALAGLDADPLVLGSVGRDDHGTMARRELAATGVETLLIESDEATAVKYLIVDENGDVAVLGNDGANEAFNASDLPAETLAEADHLHLTGQNPTTAATLARDAAAADVPVSFDPGRRLPYRDYSSVLSHAEILFCNDREADHARDSGLFETVPTVVVKHGDCGATAHIGDQTVTNAGYPIESVDTAGAGDAFAAGYLLASAQETDPERALAVANACGALAAQSSGARTTLDWESVWELVDSGQEGHHHHHH | soluble
MRRNIRVTLGAATIVAALGLSGCSHPEFKRSSPPAPSLPPVTSSPLEAAPITPLPAPEALIDVLSRLADPAVPGTNKVQLIEGATPENAAALDRFTTALRDGSYLPMTFAANDIAWSDNKPSDVMATVVVTTAHPDNREFTFPMEFVSFKGGWQLSRQTAEMLLAMGNSPDSTPSATSPAPAPSPTPPG | soluble
MMSYALVLAGNRLITSGALGTNAAAIRGAMRADPNLLTVILPQSLERQPRESRQQLDKVMHLVEKPENDHLPLAEASSLCNQEIIARCQQLICFAFHDSHTLLQTCELAEEQHKVVTLFYFDLEHHHHHH | not soluble
VGKPKMDVDLLQVDADLKKEIFDAYYNTMKTAVMTEEKLAREVEIDKVKDTVKEVYAEKFSEHEEEAQLLKEVKQIAEDLEKDVVRELITIDKIRPDGRKLDEIRH | not soluble
MSLNPFGNALIPDMIADASIQEINGVFYCYATTDGYGQGLKTSGPPVVWKSKDFVHWSFDGTYFPSAAKEKYWAPSKAIFANGKYYIYPTINGYMYPAVADKPEGPFKLARGKDEFYKPFTPSTLLQSKNPGGIDAEIFVDDDGQAYVFWGRRHVAKLNEDMITVDSVVQVISTPRKEYSEGPIFFKRKGIYYYLYTIGGDEKYQYAYVMSRVSPMGPFEAPEQDIISTTNYERGIFGPGHGCVFHPEGTDNYYFAYLEFGRRSTNRQTYVNQLKFNEDGTIRPVELTMDGVGALKKVKSDKKMKIDTVYASSIEVPLKIEPMKDPTCLRTEYFVPSFAVDGANGSRWMAAAEDSINPWIVADLGTVKKVRRSEIYFVRPTAGHAYVIEASMDGKVWQEFAVHQDRKMCSPHTDVLNKRFRYLRIKILKGVPGIWEWNIYEGHHHHHH | not soluble
MGLELPLILGTSSVFRREQMERLGIAFQAASPDFDETPMLGESAPQTALRLAEGKARSLTGRFPEALIVGADQVAWCDGRQWGKPMNLANAQKMLMHLSGREIEFYSAIVLLNTVTGRMRRHIDKTVVVMRQLDELHILRYLEREPDAVYCSCALKSEDLGALLIERIESTDPNALIGLPVFRLVDFLKNEGVEVL | not soluble
SAEDGLPKIYSHPPTESSKTPTAATIFFGADNAIPKSETTITSEGDHVTSVNEYMLESDFSTTTDNKLTAKKEKLKSEDDMGTDFIKSTTHLQKEITSLTGTTNSITRDSITEHFMPVKIGNISSPVTTVSLIDFSTDIAKEDILLATIDTGDAEISITSEVSGTLKDSSAGVADAPAFPRKKDEADMSNYNSSIKSNVPADEAVQVTDSIIPEAEIPPAPEESFTTIPDITALEEEKITEIDLSVLEDDTSAVATLTDSDEKFITVFELTTSAEKDKDKREDTLLTDEETTEGASIGMERDTANEAETHSVLLTAVESRYDFVVPASIATNLVEESSTEEDLSETDNTETVPKITEPFSGTTSVLDTPDYKEDTSTTETDIFELLKEEPDEFMI | not soluble
MSLICSISNEVPEHPCVSPVSNHVYERRLIEKYIAENGTDPINNQPLSEEQLIDIKVAHPIRPKPPSATSIPAILKALQDEWDAVMLHSFTLRQQLQTTRQELSHALYQHDAACRVIARLTKEVTAAREALATLKPQAGLIVPQAVPSSQPSVVGAGEPMDLGELVGMTPEIIQKLQDKATVLTTERKKRGKTVPEELVKPEELSKYRQVASHVGLHSASIPGILALDLCPSDTNKILTGGADKNVVVFDKSSEQILATLKGHTKKVTSVVFHPSQDLVFSASPDATIRIWSVPNASCVQVVRAHESAVTGLSLHATGDYLLSSSDDQYWAFSDIQTGRVLTKVTDETSGCSLTCAQFHPDGLIFGTGTMDSQIKIWDLKERTNVANFPGHSGPITSIAFSENGYYLATAADDSSVKLWDLRKLKNFKTLQLDNNFEVKSLIFDQSGTYLALGGTDVQIYICKQWTEILHFTEHSGLTTGVAFGHHAKFIASTGMDRSLKFYSL | soluble
MGGDADSPRERIEALAEDDHVEMRRAVDSAITSDAAAIIVIAGVGGATGSVIAPKLTDALQRIYDRPVYAVSVLPATHEEVPPENPARAIAAFESAANAQLVFDNDAWVDDRNDVEDVTDGLNAELAMRLGALFSAGEAVTAESVGQRVVDASEVISTLDEGGLATIGFARQPLGTDGDDGSLLDRARELVGMDETTVDEVESIKAVETTLRQATNGRLTFDCPRDAARSGLLVVSGPPEWLHQTAVSDGQSWLADEIGSVQLRTGDNPMPGGDELTILVLLGGIRGAPRIKEIQAATDLEHHHHHH | not soluble
MPVLALRLTALAALVISVSGCVMEAYGSRARSDAQSWIGLPIQDVIKRFGEPERVTGDAARQKYVWKEYENYSHDYDYTYYEQGHGNTPNSSVLNQKTGTANQSGYYTCIYEFFADASGRVVDATARGECR | not soluble
SLNTPFSIDEVSFRDLPGWGQDDPRKLFPAMATILSHLRNAKPYRTGALGITAAELVSLLELAERGQVNSPEQARQFFETNSVPFRISPAQGKSGFVTAFYEPELEVSATPDDVWRYPIYRRPPELVDIDNDNRPDGFDPSYAFGKADEEGISYFPDRRAIDEGCLRGRGLEIAWARSKVDLFFVHVQGAARLVFPDGAIKRITYAAKAGHVFSPIGRLLLDRGELDPKTISMQTIRQWLADHPDEVDGVLWHNRSYIFFREADVAGLDMGPIAAAKVPLVAGRALAVDRLIHTFGLPFFIHAPTLTHLDDGKPFARLMLALDTGSAIVGPARGDIFTGSGFEAGELAGTVRNEADFYILLPRIAAERYRR | not soluble
